Test results as given in US20210214461A1.

How the values were obtained:
[1] = biological target: pre-existing anti-scFv903 antibodies in human serum H105 (human); assay: competition ADA bridging ELISA
[2] = biological target: pre-existing anti-scFv903 antibodies in human serum H115 (human); assay: competition ADA bridging ELISA
[3] = biological target: pre-existing anti-scFv903 antibodies in human serum H116 (human); assay: competition ADA bridging ELISA
[4] = biological target: pre-existing anti-scFv903 antibodies in human serum H125 (human); assay: competition ADA bridging ELISA
[5] = biological target: pre-existing anti-scFv903 antibodies in human serum H135 (human); assay: competition ADA bridging ELISA
[6] = biological target: pre-existing anti-scFv903 antibodies in human serum H14 (human); assay: competition ADA bridging ELISA
[7] = biological target: pre-existing anti-scFv903 antibodies in human serum H15 (human); assay: competition ADA bridging ELISA
[8] = biological target: pre-existing anti-scFv903 antibodies in human serum H19 (human); assay: competition ADA bridging ELISA
[9] = biological target: pre-existing anti-scFv903 antibodies in human serum H20 (human); assay: competition ADA bridging ELISA
[10] = biological target: pre-existing anti-scFv903 antibodies in human serum H21 (human); assay: competition ADA bridging ELISA
[11] = biological target: pre-existing anti-scFv903 antibodies in human serum H26 (human); assay: competition ADA bridging ELISA
[12] = biological target: pre-existing anti-scFv903 antibodies in human serum H29 (human); assay: competition ADA bridging ELISA
[13] = biological target: pre-existing anti-scFv903 antibodies in human serum H3 (human); assay: competition ADA bridging ELISA
[14] = biological target: pre-existing anti-scFv903 antibodies in human serum H40 (human); assay: competition ADA bridging ELISA
[15] = biological target: pre-existing anti-scFv903 antibodies in human serum H46 (human); assay: competition ADA bridging ELISA
[16] = biological target: pre-existing anti-scFv903 antibodies in human serum H49 (human); assay: competition ADA bridging ELISA
[17] = biological target: pre-existing anti-scFv903 antibodies in human serum H50 (human); assay: competition ADA bridging ELISA
[18] = biological target: pre-existing anti-scFv903 antibodies in human serum H53 (human); assay: competition ADA bridging ELISA
[19] = biological target: pre-existing anti-scFv903 antibodies in human serum H54 (human); assay: competition ADA bridging ELISA
[20] = biological target: pre-existing anti-scFv903 antibodies in human serum H55 (human); assay: competition ADA bridging ELISA
[21] = biological target: pre-existing anti-scFv903 antibodies in human serum H56 (human); assay: competition ADA bridging ELISA
[22] = biological target: pre-existing anti-scFv903 antibodies in human serum H59 (human); assay: competition ADA bridging ELISA
[23] = biological target: pre-existing anti-scFv903 antibodies in human serum H60 (human); assay: competition ADA bridging ELISA
[24] = biological target: pre-existing anti-scFv903 antibodies in human serum H63 (human); assay: competition ADA bridging ELISA
[25] = biological target: pre-existing anti-scFv903 antibodies in human serum H64 (human); assay: competition ADA bridging ELISA
[26] = biological target: pre-existing anti-scFv903 antibodies in human serum H66 (human); assay: competition ADA bridging ELISA
[27] = biological target: pre-existing anti-scFv903 antibodies in human serum H69 (human); assay: competition ADA bridging ELISA
[28] = biological target: pre-existing anti-scFv903 antibodies in human serum H76 (human); assay: competition ADA bridging ELISA
[29] = biological target: pre-existing anti-scFv903 antibodies in human serum H79 (human); assay: competition ADA bridging ELISA
[30] = biological target: pre-existing anti-scFv903 antibodies in human serum H8 (human); assay: competition ADA bridging ELISA
[31] = biological target: pre-existing anti-scFv903 antibodies in human serum H80 (human); assay: competition ADA bridging ELISA
[32] = biological target: pre-existing anti-scFv903 antibodies in human serum H81 (human); assay: competition ADA bridging ELISA
[33] = biological target: pre-existing anti-scFv903 antibodies in human serum H96 (human); assay: competition ADA bridging ELISA
[34] = biological target: pre-existing anti-scFv903 antibodies in human serum H135 (human); assay: competition ADA bridging ELISA, 100 mcg/ml competitor
[35] = biological target: pre-existing anti-scFv903 antibodies in human serum H15 (human); assay: as above
[36] = biological target: pre-existing anti-scFv903 antibodies in human serum H19 (human); assay: as above
[37] = biological target: pre-existing anti-scFv903 antibodies in human serum H21 (human); assay: as above
[38] = biological target: pre-existing anti-scFv903 antibodies in human serum H29 (human); assay: as above
[39] = biological target: pre-existing anti-scFv903 antibodies in human serum H49 (human); assay: as above
[40] = biological target: pre-existing anti-scFv903 antibodies in human serum H53 (human); assay: as above
[41] = biological target: pre-existing anti-scFv903 antibodies in human serum H63 (human); assay: as above
[42] = biological target: pre-existing anti-scFv903 antibodies in human serum H64 (human); assay: as above
[43] = biological target: pre-existing anti-scFv903 antibodies in human serum H8 (human); assay: as above
[44] = biological target: pre-existing anti-scFv903 antibodies in human serum H80 (human); assay: as above
[45] = biological target: pre-existing anti-scFv903 antibodies in human serum H81 (human); assay: as above

B1: scFv105 (scFv)
scFv: DIVMTQSPSSLSASVGDRVTLTCTASQSVSNDVVWYQQRPGKAPKLLIYSAFNRYTGVPSRFSGRGYGTDFTLTISSLQPEDVAVYYCQQDYNSPRTFGQGTKLEVKRGGGGSGGGGSGGGGSSGGGSQVQLVQSGAEVKKPGASVKVSCTASGYTFTHYGMNWVRQAPGKGLEWMGWINTYTGEPTYADKFKDRFTFSLETSASTVYMELTSLTSDDTAVYYCARERGDAMDYWGQGTLVTVSS
signal change in competition ELISA (% reduction in OD) [1]: 2% | signal change in competition ELISA (% reduction in OD) [2]: -60% | signal change in competition ELISA (% reduction in OD) [3]: -43% | signal change in competition ELISA (% reduction in OD) [4]: -55% | signal change in competition ELISA (% reduction in OD) [5]: -23% | signal change in competition ELISA (% reduction in OD) [6]: -4% | signal change in competition ELISA (% reduction in OD) [7]: -69% | signal change in competition ELISA (% reduction in OD) [8]: -73% | signal change in competition ELISA (% reduction in OD) [9]: -19% | signal change in competition ELISA (% reduction in OD) [10]: -3% | signal change in competition ELISA (% reduction in OD) [11]: -80% | signal change in competition ELISA (% reduction in OD) [12]: -51% | signal change in competition ELISA (% reduction in OD) [13]: -59% | signal change in competition ELISA (% reduction in OD) [14]: 4% | signal change in competition ELISA (% reduction in OD) [15]: -67% | signal change in competition ELISA (% reduction in OD) [16]: -26% | signal change in competition ELISA (% reduction in OD) [17]: -31% | signal change in competition ELISA (% reduction in OD) [18]: -18% | signal change in competition ELISA (% reduction in OD) [19]: -61% | signal change in competition ELISA (% reduction in OD) [20]: -72% | signal change in competition ELISA (% reduction in OD) [21]: -5% | signal change in competition ELISA (% reduction in OD) [22]: -94% | signal change in competition ELISA (% reduction in OD) [23]: -11% | signal change in competition ELISA (% reduction in OD) [24]: -80% | signal change in competition ELISA (% reduction in OD) [25]: -55% | signal change in competition ELISA (% reduction in OD) [26]: -3% | signal change in competition ELISA (% reduction in OD) [27]: -88% | signal change in competition ELISA (% reduction in OD) [28]: -18% | signal change in competition ELISA (% reduction in OD) [29]: -41% | signal change in competition ELISA (% reduction in OD) [30]: -23% | signal change in competition ELISA (% reduction in OD) [31]: -51% | signal change in competition ELISA (% reduction in OD) [32]: -18% | signal change in competition ELISA (% reduction in OD) [33]: -29% | % reduction in OD [34]: -23.1% | % reduction in OD [35]: -69.5% | % reduction in OD [36]: -73.5% | % reduction in OD [37]: -3.4% | % reduction in OD [38]: -51.4% | % reduction in OD [39]: -26.1% | % reduction in OD [40]: -18.4% | % reduction in OD [41]: -80.5% | % reduction in OD [42]: -55.5% | % reduction in OD [43]: -23.1% | % reduction in OD [44]: -50.9% | % reduction in OD [45]: -18.1%
